One block for each substance: values may come before it.
Assays:
Assay in all cases: cell-based or functional assay
[1] = target: human TSH receptor (full length, wild type) expressed on CHO cells (human) (UniProt P16473)
[2] = target: wild type TSHR expressed in CHO cells (human) (UniProt P16473)
[3] = target: human TSHR with Glu251 mutated to Ala expressed in CHO cells (human) (UniProt P16473)
[4] = target: wild type TSHR expressed in CHO cells (human) (UniProt P16473); remark: listed apart in the source
[5] = target: TSHR with Lys250 mutated to Ala (expressed in CHO cells) (human) (UniProt P16473)
[6] = target: human TSH receptor (full length, wild type) expressed in CHO cells (human) (UniProt P16473)

- Cyclic AMP concentration in hypotonic medium; 100 ng/mL rhTSH alone [1]: 37.8 pmol/mL
- Cyclic AMP concentration in isotonic medium; 100 ng/mL rhTSH alone [1]: 29.9 pmol/mL
Substance: recombinant human TSH (from UniProt P01215 25-116; P01222 21-138) (ligand)

- % inhibition of TSH stimulation; 5B3 10 µg/mL [2]: 5%
- % inhibition of TSH stimulation; 5B3 100 µg/mL [2]: 11%
- Cyclic AMP produced; 5B3 10 µg/mL + TSH 3 ng/mL [2]: 92.9 pmol/mL
- Cyclic AMP produced; 5B3 100 µg/mL + TSH 3 ng/mL [2]: 86.3 pmol/mL
- % inhibition of TSH stimulation; 5B3 10 µg/mL [3]: 10%
- % inhibition of TSH stimulation; 5B3 100 µg/mL [3]: 0%
- Cyclic AMP produced; 5B3 10 µg/mL + TSH 3 ng/mL [3]: 68.7 pmol/mL
- Cyclic AMP produced; 5B3 100 µg/mL + TSH 3 ng/mL [3]: 76.7 pmol/mL
- Mutated/wild type (%) of cyclic AMP produced; 5B3 10 µg/mL + TSH 3 ng/mL [3]: 74%
- Mutated/wild type (%) of cyclic AMP produced; 5B3 100 µg/mL + TSH 3 ng/mL [3]: 89%
- % inhibition of TSH stimulation; 5B3 10 µg/mL; Experiment 1 [4]: 0.1%
- % inhibition of TSH stimulation; 5B3 10 µg/mL; Experiment 2 [4]: 0%
- % inhibition of TSH stimulation; 5B3 100 µg/mL; Experiment 1 [4]: 0%
- % inhibition of TSH stimulation; 5B3 100 µg/mL; Experiment 2 [4]: 0%
- Cyclic AMP produced; 5B3 10 µg/mL + TSH 3 ng/mL; Experiment 1 [4]: 77.8 pmol/mL
- Cyclic AMP produced; 5B3 10 µg/mL + TSH 3 ng/mL; Experiment 2 [4]: 90.6 pmol/mL
- Cyclic AMP produced; 5B3 100 µg/mL + TSH 3 ng/mL; Experiment 1 [4]: 79.9 pmol/mL
- Cyclic AMP produced; 5B3 100 µg/mL + TSH 3 ng/mL; Experiment 2 [4]: 87.5 pmol/mL
- % inhibition of TSH stimulation; 5B3 10 µg/mL; Experiment 1 [5]: 0%
- % inhibition of TSH stimulation; 5B3 10 µg/mL; Experiment 2 [5]: 14%
- % inhibition of TSH stimulation; 5B3 100 µg/mL; Experiment 1 [5]: 0%
- % inhibition of TSH stimulation; 5B3 100 µg/mL; Experiment 2 [5]: 1%
- Cyclic AMP produced; 5B3 10 µg/mL + TSH 3 ng/mL; Experiment 1 [5]: 67.7 pmol/mL
- Cyclic AMP produced; 5B3 10 µg/mL + TSH 3 ng/mL; Experiment 2 [5]: 47.1 pmol/mL
- Cyclic AMP produced; 5B3 100 µg/mL + TSH 3 ng/mL; Experiment 1 [5]: 66.1 pmol/mL
- Cyclic AMP produced; 5B3 100 µg/mL + TSH 3 ng/mL; Experiment 2 [5]: 54.7 pmol/mL
- Mutated/wild type (%) of cyclic AMP produced; 5B3 10 µg/mL + TSH 3 ng/mL; Experiment 1 [5]: 87%
- Mutated/wild type (%) of cyclic AMP produced; 5B3 10 µg/mL + TSH 3 ng/mL; Experiment 2 [5]: 52%
- Mutated/wild type (%) of cyclic AMP produced; 5B3 100 µg/mL + TSH 3 ng/mL; Experiment 1 [5]: 83%
- Mutated/wild type (%) of cyclic AMP produced; 5B3 100 µg/mL + TSH 3 ng/mL; Experiment 2 [5]: 62%
Substance: 5B3 IgG (human monoclonal antibody to GAD, negative control for K1-70)

- Cyclic AMP concentration at 0.1 units/L NIBSC 90/672 [6]: 5 pmol/mL
- Cyclic AMP concentration at 0.3 units/L NIBSC 90/672 [6]: 12.5 pmol/mL
- Cyclic AMP concentration at 1 unit/L NIBSC 90/672 [6]: 27.4 pmol/mL
Substance: NIBSC reference preparation 90/672 (Thyroid Stimulating Autoantibody reference preparation)

Source: US20110300138A1 (published 2011)
